Experimental data reported in patent publication US20180044415A1 (AbbVie / Abbott, published 2018).
Where a chain is given by its changes, count along the chain named.

T1: human DLL3 (immobilized human DLL3 or h293-hDLL3 cells) (human, UniProt Q9NYJ7 27-492, limits assumed)
T1 construct: the sentence says 'immobilized human DLL3 or h293-hDLL3 cells'
T1 sequence: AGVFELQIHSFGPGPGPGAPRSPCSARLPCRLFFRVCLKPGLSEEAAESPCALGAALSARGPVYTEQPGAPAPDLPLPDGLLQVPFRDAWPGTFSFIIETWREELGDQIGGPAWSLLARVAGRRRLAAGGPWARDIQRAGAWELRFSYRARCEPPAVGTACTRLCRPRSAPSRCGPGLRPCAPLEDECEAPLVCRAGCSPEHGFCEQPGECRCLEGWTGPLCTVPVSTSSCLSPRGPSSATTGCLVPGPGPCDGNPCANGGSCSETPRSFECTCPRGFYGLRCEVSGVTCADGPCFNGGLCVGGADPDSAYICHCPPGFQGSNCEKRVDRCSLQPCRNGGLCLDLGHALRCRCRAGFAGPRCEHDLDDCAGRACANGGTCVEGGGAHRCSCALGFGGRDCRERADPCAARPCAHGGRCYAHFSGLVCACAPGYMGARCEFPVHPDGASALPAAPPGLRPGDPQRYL

B1: SC16.63 (antibody, V domains shown)
VH: QVQLQQSGTELLRPGASVKISCKATGYTFSSYWMEWVKQRPGHGLEWIGEILPGSGTTQYNEKFKGKATFTADTSSNTAYMHLSSLTSEDSAVYYCARGTNSLWGQGTLVTVSA
VL: QIVLTQSPAIMSASPGEKVTMTCSASSSVSYMYWYQQKSGTSPKRWIYDTSKLASGVPARFSGSGSGTSYSLTISSMEAEDAATYYCQQWSSNPYTFGGGTKLEIK
notes: murine mAb; variable regions only
B2: SC16.52 (antibody, V domains shown)
VH: QVQLKESGPGLVAPSQSLSITCAVSGFSLTSFAIHWFRKPPGKGLEWLGVIWTGGTTNYNSALMSRLSISKDNSKSQVFLKMNSLQTDDTAMYYCARDDYDNNYAMDYWGQGTSVTVSS
VL: DIQMIQSPSSMFASLGDRVSLSCRASQGIRGTLDWYQQKPNGTIKLLIYSTSNLNSGVPSRFSGSGSGSDYSLTISSLESEDFADYYCLQRNAYPLTFGAGTKLELK
notes: as for B1
B3: SC16.45 (antibody, V domains shown)
VH: QVQLQQSGADLVRPGTSVKVSCKASGYSFTNYLIEWVKQRPGQGLEWIGVINPGSGGTHYNEKFKDKAVLTADKSSTTAHMQLSSLTSDDSAVYFCARSPYDYNDGAMDYWGQGTSVTVSS
VL: EIQMTQSPSSMSASLGDRITITCQATQDIVKNLNWYQQKPGKPPSFLIYYATELAEGVPARFSGSGSGSDYSLTISNLESEDFADYHCLQFYEFPFTFGAGTKLELK
notes: as for B1
B4: SC16.57 (antibody, V domains shown)
VH: EVKLVESGGDLVKPGGSLKLSCAASGFAFSSYDMSWVRQTPEKRLEWVATISSGGSYTYYPDSVKGRFTISRDNVRDTLYLQMSSLRSEDTALYYCARQAIGTYFDYWGQGTTLTVSS
VL: DIVMTQSHKFMSISVGDRVSITCKASQDVSIFVAWYQQKPGQSPKLLIYSASYRYTGVPDRFTGSGSGTDFIFTISSVQAEDLAVYYCQQHYGTPFTFGSGTKLKIR
notes: as for B1
B5: SC16.72 (antibody, V domains shown)
VH: EVQLQQSGPELVKPGASVKMSCKASGYTFTSYVMHWVKQKPGQGLEWIGYINPYNDGTKYNEKFKGKATLTSDKSSSTAYMELSSLTSEDSAVYYCARLRSRAMDYWGQGTSVTVSS
VL: ENVLTQSPAIMSASLGEKVTMSCRASSSVNYMSWYQQKSDASPKLWIYYTSNLAPGVPARFSGSGSGNSYSLTISSMEGEDAATYYCQQFTSSPYTFGGGTKLEIK
notes: as for B1
B6: SC16.73 (antibody, V domains shown)
VH: QVQLQQSGAELMKPGASVKISCKANGYTFSSYWIEWLRQRPGHGLEWIGEILPGSDNSNYNEKFKGKATFTADTSSNTAYMQLSSLTSEESAVYYCTRGLRRDGSYYYVMEHWGQGTSVTVSS
VL: DIQMTQSPSSLSASLGERVSLTCRASQDIGYSLNWLQQEPDGTIKRLIYATSSLDSGVPKRFSGSRSGSDYSLTISSLESEDFVDYYCLQYASSPWTFGGGTKLEIK
notes: as for B1
B7: SC16.49 (antibody, V domains shown)
VH: QVQLQQSGPELVKPGTLVKISCKASGYTFTSYDINWVKQRPGQGLEWIGWIYPGDGNTKYSEKFKGKATLTADKSSSTAYMQLTSLTSENSAVYFCARDYDYPFAYWGQGTLVTVSA
VL: DIKMTQSPSSMYASLGERVTITCKASQDINSYLSWFQQKPGKSPKTLIYRANRLVDGVPSRFSGSGSGQDYSLTITSLEYEDMGIYYCLQYDEFPLTFGAGTKLELK
notes: as for B1
B8: SC16.55 (antibody, V domains shown)
VH: EVQLVESGGGLVQPKGSLKLSCAVSAFTFTTYAMNWVRQAPGKGLEWVARIRNKSNNYATYYADSVKDRFTISRDDSQSMLYLQMNNLKIEDTAMYYCVFYYDYVYWGQGTLVTVSA
VL: B7 VL with S34N, T76S, L96Y, A100G, L106I
notes: as for B1
B9: SC16.62 (antibody, V domains shown)
VH: EVMLVESGGDLVKPGGSLKLSCAASGFTFSSYAMSWVRQTPEKRLEWVAYISGGGDHIYYPDSVRGRFTISRDNAKDTLYLQMSSLRSEDTALYDCARVRDWYFDVWGAGTTVTVSS
VL: B7 VL with Y32F, Q38R, S63T, D70E, Y71F, T76S, M83L, L96Y, A100G, L106I
notes: as for B1
B10: SC16.29 (antibody, V domains shown)
VH: QVQLQQSGAELARPGASVKLSCKASGYTFTDQYINWVKQRTGQGLEWIGEIYPGRGNTYYNEKFKGKATLTADKSSSTAYMQLSSLTSEDSAVYFCAREDGGYDDAWFAYWGQGTLVTVSA
VL: QIVLTQSPAIMSASPGEKVTITCSASSSVSYMHWFQQKPGTSPKLWIYTTSNLASGVPARFSGSGSGTSYSLTVSRMEAEDAATYYCQQRSLYPYTFGGGTKVEIK
notes: as for B1
B11: SC16.22 (antibody, V domains shown)
VH: QVQLQQPGAELVKPGASVKLSCKASGYTFTTYWMHWVKQRPGQGLEWIGEIDPSDSYTYYNQKFKGKATLTVDKSSSTAYMQLSSLTSEDSAVYYCARGDYGNPYAMDYWGQGSSVTVSS
VL: DIQMTQTTSSLSASLGDRVTISCRASQDIKNYLNWYQQKPDGTVKPLIYYTSRVHSGVPSRFSGSGSGTDYSLTISNLEQEDIATYFCQQGYTLPFTFGSGTKLEIK
notes: as for B1
B12: SC16.35 (antibody, V domains shown)
VH: DVQLQESGPGLVKPSQSLSLTCTVTGYSITSDYAWNWIRQFPGNKLEWMGYISYSGSTSYNPSLKSRISITRDTSKNQFFLQLNSVTTEDTATYYCARFYYGSSYAMDYWGQGTSVTVSS
VL: B11 VL with K30S, P46L, V54L, Y92N, F96Y, S100G
notes: as for B1
B13: SC16.38 (antibody, V domains shown)
VH: EVQLQQSGAELVKPGASVKLSCTVSGFNIKDTYIHWVKQRPEQGLEWIGRIDPANGNTKYDPKFQGKATITADTSSNTAYLQLSSLTSEDTAVYYCARPTGYFEYWGQGTTLTVSS
VL: QIVLTQSPAIMSASPGEKVTMTCSASSSINYMHWYQQKPGTSPKRWIYDTSKLASGVPARFSGSGSGTSYSLTISSMEAEDAATYYCHQRSTWTFGGGTKLEIK
notes: as for B1
B14: SC16.47 (antibody, V domains shown)
VH: EVQLQQSGPELVKPGASVKISCKASGYSFSRFYMHWVKQSPENSLEWIGEINPSTGGTSYNQKFKGKATLTVDKSSSTAYMQLKSLTSEESAVYYCTRGYGSNCYFDVWGAGTTVTVST
VL: DVVLTQSPLSLPVNIGDQASISCKSTKSLLNSDGFTYLDWYLQRPGQSPQFLIYLVSNRFSGVPDRFSGSGSGTDFTLKISRVEAEDLGVYYCFQSNYLPLTFGAGTKLELR
notes: as for B1
B15: SC16.61 (antibody, V domains shown)
VH: EVLLQRSGPDLVKPGASVTIPCKASGYTFTDYNMDWVKQSHGKSLEWIGNINTYNGGTIYNQKFKGKATLTVDKPSSTAYMELRSLTSEDTAVYYCARRLRYGGHYFDYWGQGTALTVSS
VL: DIVMTQSTSSLAMSVGQKVTMSCKSSQSLLNSSNQKNYLAWYQQEPGQSPKLLVSFASTRESGVPDRFTGSGSGTDFTLTISGVQAEDLAVYYCQQHYSIPLTFGAGTKLELK
notes: as for B1
B16: SC16.30 (antibody, V domains shown)
VH: QVTLKESGPGILQPSQTLSLTCSFSGFSLSTSGMGVGWIRQPSGKGLEWLAHIWWDDVKRYKPALKSRLTVSKDTSSNQVFLKIATVDAADTGTYYCARIVDGHPPFAYWGQGTLVTVSA
VL: QIVLTQSPTIMSASLGERVTMTCTASSSVTSSYLHWYQQKPGSSPKLWIYSTSNLASGVPARFSGSGSGTSYSLTISSMEAEDAATYYCHQFHRSPFTFGSGTKLEIK
notes: as for B1
B17: SC16.42 (antibody, V domains shown)
VH: QIQLVQSGPELKKPGETVKISCKASGYTFTTAGMQWVQKMPGKGFKWIGWINTHSGEPKYADDFKGRFAFSLETSASTAYLQISNLKDEDTATFFCAPLWSDSSFAYWGQGTLVTVSA
VL: DVLMTQSPLSLSVSLGDQASISCRSSQNIVHSDRYTYLEWYLQKPGQSPKLLIYGVSNRFSGVPDRFSGSGSGTDFTLKISRVEAEDMGVYYCFQGTHVPYTFGGGTKLEIK
notes: as for B1
B18: SC16.58 (antibody, V domains shown)
VH: DVQLVESGGGLVQPGGSRKLSCAASGFTFSSFGMHWVRQAPEKGLEWVAYISSGSSNIYYADTVKGRFTISRDNPKNTLFLQMTSLRSEDTAMYYCARGYYGNYDAMDYWGQGTSVTVSS
VL: DIQMTQSPASLSSSVGETVTITCRASENIYSYLAWYQQKQGKSPQLLVYNAKTLAEGVPSRFSGSGSGTQFSLKINSLQPEDFGTYYCQHHYDSPLTFGAGTKLELR
notes: as for B1
B19: SC16.65 (antibody, V domains shown)
VH: QVTLKESGPGILQPSQTLSLTCSFSGFSLSTSGMGVGWIRQPSGKGLEWLALIWWDDVKRYNPALKSRLTISKDASSSQVFLKIASVDTADTATYYCARIASYDYDVVYAMDYWGQGTSVSVSS
VL: QIVLTQSPALMSASPGEKVTMTCSVTSSVSYMYWYQQKPRSSPKPWIYLTSNLASGVPARFSGSGSGTSYSLTISSVEAEDAATYYCQQWRNNPFTFGSGTKVEIK
notes: as for B1
B20: SC16.67 (antibody, V domains shown)
VH: B8 VH with S7T
VL: QAVVTQESALTTSPGETVTLTCRSSTGAVTTSNYANWIQEKPDHLFTGLIGGTNNRAPGVPARFSGSLIGDKAALTITGAQTEDEAIYFCGLWYSNHLVFGGGTKLTVL
notes: as for B1

These binders were tested against T1, human DLL3 (immobilized human DLL3 or …) (assay: hybridoma screening on immobilized human DLL3 or on h293-hDLL3 cells).

binding result	Binder
binds	B1
binds	B2
binds	B3
binds	B4
binds	B5
binds	B6
binds	B7
binds	B8
binds	B9
binds	B10
binds	B11
binds	B12
binds	B13
binds	B14
binds	B15
binds	B16
binds	B17
binds	B18
binds	B19
binds	B20
